This experiment has as its target ACE2-Fc, recombinant protein (Sino Biological 10108-H02H) (human, UniProt Q9BYF1). Description: BLI. (In general: BLI is a label-free optical method that tracks binding on a fibre tip over time.)

B1: BTN3A2-L-His, recombinant protein (Sino Biological 13515-H08H) (natural protein)
chain: not shown
Take B1: the Kd worked out at 92.7 ± 0.359 nM.

In general, Kd refers to the concentration at which binding is half-saturated.
